Results reported in US8956612B2, “Peptide associated with rheumatic fever (PARF) and its use as a diagnostic marker” (Helmholtz-Zentrum für Infektionsforschung GmbH, priority 2006, dated 2015).

Legend:
collagen IV [1] = test: Immunization of mice, anti-collagen IV antibody titer by ELISA; assay type: in vivo, BALB/c mice; settings: sera of immunized mice compared to the buffer control
Experimental: Pathogen free 8 week old female BALB/c mice were immunized intra-peritoneally with an emulsion of 25-30 μg recombinant purified protein in 50 μl PBS and 50 μl Freund's incomplete adjuvant per dose at day 1, 7 and 14. Control mice were injected with 50 μl PBS and 50 μl Freund's incomplete adjuvant per dose. At day 21, serum samples of each group were collected and tested in ELISA. To absorb FOG reactive antibodies, 10 μl serum pool was diluted 1:50 in PBS, and incubated for 1 h with 1 mg GST-FOGfl protein immobilized on glutathione sepharose 4B. Antibodies that bound to the affinity matrix were removed by centrifugation. The supernatant was subjected to ELISA analysis.
To determine anti-collagen CIV antibody titers, 96 well plates (Greiner, Frickenhausen, Germany) were coated over night at 4° C. with anti-human collagen IV rabbit polyclonal antibody (Progen, Heidelberg, Germany) diluted 1:100 in 0.1 M NaHCO3 (pH=9.6), blocked with 2% bovine serum albumin (BSA) in PBST and incubated with collagen IV (2 μg/ml in PBS) for 1 h at 37° C. […] After washing, bound antibodies were detected using suitable horseradish peroxidase coupled secondary anti-serum (goat anti-mouse IgG,M, Jackson Laboratories; rabbit anti-human IgG, A, M, Sigma-Aldrich) and 2,2-azino-di-[3-ethylbenzthiazoline sulfonate]diammonium salt (ABTS tablets, Boehringer, Mannheim, Germany) as substrate. […]

collagen IV [2] = target: T1, collagen IV (Homo sapiens, UniProt P02462+P08572); test: Surface plasmon resonance, FOG fragments on immobilized collagen IV; assay type: binding; settings: SPR; 12.5, 25, 50, 100 μg/ml
T1 construct: purchased Sigma; host or cells: human placenta (tissue-derived)
Experimental: Site directed mutagenesis was performed on the plasmid pGEX-6P-1-FOGfl that coded for the GST-FOGfl fusion protein. E. coli clones containing the plasmids with the desired substitutions were generated using the GeneTailor™ Site Directed Mutagenesis System (Invitrogen) following the manufacturers recommendations. The tagged proteins from E. coli lysates were bound to glutathione sepharose 4B (GE Healthcare) and eluted with 10 mM reduced L-glutathione (Sigma) in 50 mM TrisHCl (pH=8.0) after washing the matrix with PBS. Alternatively, for SPR measurements of FOG1-B and FOG1-A the GST-tag was removed by digesting the proteins with PreScission™ protease (GE Healthcare) while bound to the affinity matrix, which eluted the untagged FOG proteins.
Protein interactions were studied in a BIAcore 2000 system (BIAcore AB) using 10 mM HEPES, 100 mM NaCl, pH=7.4 as running buffer. A CM5 sensor chip was activated by a 4 min injection of 0.05M N-hydroxysuccinimid, 0.2 M N-ethyl-N-(3-dimethylaminopropyl)-carbodiimide hydrochloride in water. Collagen IV from human placenta (Sigma, 1 mg/ml in 0.1M NaAc) was diluted 1:25 in 10 mM NaAc (pH=5.2). Immediate injection of 3 μl at a flow rate of 5 μl/min lead to immobilization of 400 to 550 response units (RU) of collagen IV. Residual reactive groups were inactivated by 6 min injection of 1 M ethanolamine, 0.1 M NaHCO3, 0.5 M NaCl, 5 mM EDTA, pH=8.0. […]

T1 sequence (P02462 173-1669): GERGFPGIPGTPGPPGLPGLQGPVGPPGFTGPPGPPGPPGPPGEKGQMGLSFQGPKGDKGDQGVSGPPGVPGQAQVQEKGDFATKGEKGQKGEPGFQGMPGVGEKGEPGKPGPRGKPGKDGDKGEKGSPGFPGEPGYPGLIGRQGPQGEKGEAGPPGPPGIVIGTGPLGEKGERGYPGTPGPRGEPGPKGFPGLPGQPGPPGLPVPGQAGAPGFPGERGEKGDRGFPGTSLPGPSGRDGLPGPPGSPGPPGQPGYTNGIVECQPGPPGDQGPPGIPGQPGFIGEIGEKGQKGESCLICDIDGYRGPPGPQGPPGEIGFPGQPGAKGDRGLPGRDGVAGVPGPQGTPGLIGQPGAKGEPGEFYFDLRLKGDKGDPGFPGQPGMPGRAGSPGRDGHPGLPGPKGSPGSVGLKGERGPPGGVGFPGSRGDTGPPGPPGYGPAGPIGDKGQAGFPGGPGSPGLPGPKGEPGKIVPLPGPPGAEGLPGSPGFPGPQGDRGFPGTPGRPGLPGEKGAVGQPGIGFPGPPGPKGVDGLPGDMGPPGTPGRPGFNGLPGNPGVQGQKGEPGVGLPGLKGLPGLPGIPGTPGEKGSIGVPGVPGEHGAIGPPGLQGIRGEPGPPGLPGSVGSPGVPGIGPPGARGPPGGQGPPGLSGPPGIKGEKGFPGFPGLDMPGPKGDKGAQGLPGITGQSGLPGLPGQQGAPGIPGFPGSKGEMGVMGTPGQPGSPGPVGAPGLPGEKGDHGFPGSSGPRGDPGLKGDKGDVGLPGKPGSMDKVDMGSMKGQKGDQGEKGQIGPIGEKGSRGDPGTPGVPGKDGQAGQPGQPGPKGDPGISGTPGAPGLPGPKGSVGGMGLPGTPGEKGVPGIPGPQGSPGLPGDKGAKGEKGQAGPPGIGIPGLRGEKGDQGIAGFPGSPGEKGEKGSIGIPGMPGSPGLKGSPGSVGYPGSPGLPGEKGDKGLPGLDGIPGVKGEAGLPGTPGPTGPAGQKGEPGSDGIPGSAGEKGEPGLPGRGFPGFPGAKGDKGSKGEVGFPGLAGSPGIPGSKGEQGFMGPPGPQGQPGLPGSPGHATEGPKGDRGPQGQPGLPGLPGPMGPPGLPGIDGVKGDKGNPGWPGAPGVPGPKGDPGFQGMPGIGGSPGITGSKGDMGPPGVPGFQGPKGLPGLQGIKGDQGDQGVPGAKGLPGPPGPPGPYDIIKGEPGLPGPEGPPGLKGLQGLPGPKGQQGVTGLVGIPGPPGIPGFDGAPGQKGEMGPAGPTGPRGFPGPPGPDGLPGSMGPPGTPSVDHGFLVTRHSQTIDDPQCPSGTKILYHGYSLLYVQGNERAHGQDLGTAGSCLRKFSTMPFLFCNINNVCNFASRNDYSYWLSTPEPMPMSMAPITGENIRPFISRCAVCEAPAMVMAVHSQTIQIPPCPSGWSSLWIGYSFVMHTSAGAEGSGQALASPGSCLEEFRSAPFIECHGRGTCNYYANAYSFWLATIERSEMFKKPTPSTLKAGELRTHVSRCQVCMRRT
T1 sequence (P08572 184-1712): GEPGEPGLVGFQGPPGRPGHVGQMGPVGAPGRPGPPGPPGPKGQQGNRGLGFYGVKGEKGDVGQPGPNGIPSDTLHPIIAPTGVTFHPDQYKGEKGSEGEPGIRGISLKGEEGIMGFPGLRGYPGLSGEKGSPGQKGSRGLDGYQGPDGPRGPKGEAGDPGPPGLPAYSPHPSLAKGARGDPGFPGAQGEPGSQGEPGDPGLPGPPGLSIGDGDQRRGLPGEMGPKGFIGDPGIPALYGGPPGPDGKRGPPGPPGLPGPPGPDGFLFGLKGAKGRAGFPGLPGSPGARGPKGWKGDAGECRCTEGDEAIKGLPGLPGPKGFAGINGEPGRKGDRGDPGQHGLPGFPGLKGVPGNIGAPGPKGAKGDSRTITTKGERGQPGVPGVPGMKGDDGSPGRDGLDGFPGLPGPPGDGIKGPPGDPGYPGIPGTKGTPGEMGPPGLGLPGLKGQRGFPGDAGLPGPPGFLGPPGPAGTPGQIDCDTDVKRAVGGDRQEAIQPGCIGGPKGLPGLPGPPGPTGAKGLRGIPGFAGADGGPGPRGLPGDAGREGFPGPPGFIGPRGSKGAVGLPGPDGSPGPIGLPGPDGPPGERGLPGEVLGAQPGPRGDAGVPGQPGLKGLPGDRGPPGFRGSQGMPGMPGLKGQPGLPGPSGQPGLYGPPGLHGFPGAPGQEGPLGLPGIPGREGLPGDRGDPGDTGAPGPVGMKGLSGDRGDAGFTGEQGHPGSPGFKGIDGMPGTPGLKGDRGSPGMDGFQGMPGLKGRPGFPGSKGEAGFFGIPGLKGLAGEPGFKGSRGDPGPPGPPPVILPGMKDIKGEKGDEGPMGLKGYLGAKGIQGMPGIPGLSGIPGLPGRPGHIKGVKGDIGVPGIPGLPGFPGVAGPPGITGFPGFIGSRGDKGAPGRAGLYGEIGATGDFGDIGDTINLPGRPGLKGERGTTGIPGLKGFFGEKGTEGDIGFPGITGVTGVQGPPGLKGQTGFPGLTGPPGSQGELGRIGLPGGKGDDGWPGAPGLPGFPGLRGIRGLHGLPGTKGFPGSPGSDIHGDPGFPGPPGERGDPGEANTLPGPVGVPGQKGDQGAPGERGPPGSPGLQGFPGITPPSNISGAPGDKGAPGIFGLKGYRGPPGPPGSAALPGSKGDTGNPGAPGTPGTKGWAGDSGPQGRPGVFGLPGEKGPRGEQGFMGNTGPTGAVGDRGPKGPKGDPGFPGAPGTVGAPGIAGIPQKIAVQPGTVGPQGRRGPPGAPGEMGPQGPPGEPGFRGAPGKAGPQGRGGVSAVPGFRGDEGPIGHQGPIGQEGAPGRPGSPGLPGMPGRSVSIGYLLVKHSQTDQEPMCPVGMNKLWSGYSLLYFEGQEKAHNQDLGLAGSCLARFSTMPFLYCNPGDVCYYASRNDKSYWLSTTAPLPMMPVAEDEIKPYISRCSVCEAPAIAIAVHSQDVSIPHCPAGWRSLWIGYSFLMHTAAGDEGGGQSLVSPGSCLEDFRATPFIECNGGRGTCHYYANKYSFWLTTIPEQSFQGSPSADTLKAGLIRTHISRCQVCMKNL

B1: FOG1-A: recombinant protein, the first 134 amino acids of the mature FOG protein (protein, listed as Streptococcus sp.)
chain: DRWKAQTEEARTDKLIAGFANLDADVTNLGKMMDELQKLKDFSKQNNSIGEYARYLQKLNDQFQEYYEQVVGDDSRRVLAKELAKNTELNEKLSELSTTSQALAKELQEQKENYDLVK
In the case of B1, the “titers of anti-collagen antibodies in ELISA” value (collagen IV [1]) is reported as “Substantially higher titers” and the “interaction with immobilized collagen IV” value (collagen IV [2]) is reported as “concentration dependent interaction”.
